Measured values from patent US6300084A, “Anti-mitotic agent screening process” (The Regents of the University of California, priority 1999, dated 2001).
One block for each compound: values may come before it.

Legend:
[1] = target: yeast microtubules (yeast); assay: co-sedimentation with microtubules; no increase with more microtubules
[2] = target: bovine microtubules (assembled from bovine tubulin, stabilised with taxol) (bovine); assay: as above
[3] = target: bovine microtubules (assembled from bovine tubulin, stabilised with taxol) (bovine); assay: co-sedimentation of in vitro translated Dam1p with taxol-stabilised bovine microtubules; half of Dam1p in the pellet at 5 µM microtubules
[4] = test system: microtubules of wild-type strain DDY898; assay: Microtubule depolymerization by benomyl in yeast cells, immunofluorescence; type: cell-based; conditions: 20 μg/ml benomyl, two hours at 25° C.
Protocol: Yeast cells were grown to early log phase in minimal or rich medium. For galactose induction, cells were grown to log phase in medium containing either raffinose or glucose. Cells grown on glucose were washed twice with water and then diluted into medium containing galactose/raffinose. Galactose was added directly to medium containing raffinose. Fixation and immunofluorescence procedures were carried out as described by Drubin et al. (1988). The YOL134 anti-tubulin antibody was used at 1:200 and the anti-Duo1p antibody (preparation described below) at 1:2000. Fluorescein-conjugated anti-heavy chain secondary antisera were obtained from Cappel/Organon Teknika (Malvern, Pa.). To determine whether the localization of Duo1p was dependent on microtubules in vivo, microtubules of wild-type strain DDY898 were depolymerized by the addition of 20 μg/ml benomyl. […] With the elimination of microtubules, Duo1p staining also vanished.

percent of the protein bound to microtubules [1]: 9%
percent of the protein bound to microtubules [2]: 9%
Compound: GST-Duo1p fusion protein purified from yeast (pDD475)

Kd [3]: 5 µM
Compound: in vitro translated Dam1p

Compound: CCCCNC(=O)n1c(NC(=O)OC)nc2ccccc21 [benomyl]
depolymerization of microtubules (immunofluorescence) [4]: essentially all of the microtubules were depolymerized
